Several values for one entry are separate records, joined by “and”; a condition that tells them apart may be missing. Equal values may be shown once. Read-outs that look alike come from different tables or passages of the source. Numbered stars: 1 amine (or outer) side, 2 acyl side, 3 side chain; on linkers, the order of the positions; unused ones are H or OH. Bridge positions count the residues as written; N and C are the ends. Square brackets hold non-standard residues; d marks the D form. Peptide text beside a SMILES is read from it. * marks the point of attachment. X1 = COc1cc2cc(c1Cl)N(C)C(=O)C[C@H](OC(=O)[C@H](C)N(C)C(=O)CCSSC(C)CCC(=O)*)[C@]1(C)O[C@H]1[C@H](C)[C@@H]1C[C@@](O)(NC(=O)O1)[C@H](OC)/C=C/C=C(\C)C2; 1Nal = N[C@@H](Cc1cccc2ccccc12)C(=O)O; TBMB = c1c(C[*:1])cc(C[*:3])cc1C[*:2]; Tle = CC(C)(C)[C@H](N)C(=O)O; βAla = NCCC(=O)O; Sar = CNCC(=O)O
Key:
[1] = Monkey GLP study toxicokinetics; format: in vivo; settings: plasma, Day 1 male; for clearance / half-life / Cmax / Vd: Cynomolgus; for Cmax: read-out: C0/Cmax; for Vd: read-out: Vdss
Excerpt: In a repeat dose experiment with BT1718 no significant gender-related differences in the TK parameters for the rat or monkey were noted. Exposure in both the rat and monkey increased approximately linearly with dose and was maintained for 28 days on repeat dosing. […] Plasma clearance and volume of distribution were similar across BT1718 dose and consistent with the PK studies.

[2] = LC-MS/MS quantification of DM1 in patient tumor samples; format: in vivo, patients; settings: three patient tumor samples
Experimental: A quantitative high performance liquid chromatography-tandem mass spectrometry (LC-MS/MS) method for the quantification of DM1 in tissue samples was developed.
DM1 was administered as complexed with a bicyclic peptide in […]. In order to determine the concentration of the free DM1 the conjugated molecule was reduced and subsequently derivatized with vinyl pyridine.
The same sample preparation procedure used for PK determination in the GLP pre-clinical studies, is applied for the determination of DM1 in tissue samples, In short: after tissue homogenization samples were reduced with TCEP prior derivatization by vinyl-pyiridine. […]
The homogenization method was optimized as follows: • 1) Thaw the tissue samples at room temperature. • 2) Weight the desired amount of tissue in a Precellys 2 mL Reinforced tube on an Analytical Balance. • 3) Use the weight of the tissue to calculate the volume of solution. […] Homogenization solution: (NaCl (0.9%): SDS (0.2 mg/mL) (50:50 v/v %)) • 4) Add the calculated amount of solution to the tissue. • 5) Vortex for approximately 5 seconds. • 6) Pre-cool the samples in a wet ice bath for approximately 8 minutes • 7) Run the Precellys-24 Dual homogenizer at 5000 rpm in five sessions of 40 seconds. • 8) Centrifuge the homogenate samples 3 minutes at 3000 rpm at 4° C. using a 5810-R centrifuge.

[3] = Clinical pharmacokinetics of BT1718, 1 h intravenous infusion; format: in vivo, patients; settings: for clearance / half-life / Vd: human, plasma
Excerpt: Intact BT1718 and total DM1 (DM1 in BT1718, any peptidyl-DM1 metabolites of BT1718, and other DM1-containing mixed disulfides and free DM1) will be measured in plasma according to agreed standard operating procedures (SOPs) and validated methods in Phase I, dose escalation phase (Stage 1 and 2) and potentially in Phase IIa, expansion phase (Parts A and B), dependent on emerging data.
The plasma concentration/time data will be analyzed using non-compartmental methods. The PK parameters to be determined for intact BT1718 include Cmax, Tmax, AUC, t1/2, total body clearance (CLT) and Vdss. The PK parameters to be determined for total DM1 include Cmax, Tmax, AUC and t1/2.
The preliminary clinical pharmacokinetic data for BT1718 following a 1 hour intravenous infusion to patients are shown in Table 13 below.

[4] = Stability in plasma in vitro, dog; format: in vitro ADME; settings: 37° C.
Experimental: The stability of BT1718 was assessed in plasma and whole blood from humans, monkey, dog, mouse and rat. […] The mechanism for the difference in stability of the BT1718 peptide in whole blood between the different species is unknown.

[5] = 2.4 mg/m2, Monkeys GLP, 2.4 mg/m^2 IV
[6] = 6 mg/m2, Monkeys GLP, 6 mg/m^2 IV
[7] = 12 mg/m2, Monkeys GLP, 12 mg/m^2 IV
[8] = 18 mg/m2, Monkeys GLP, 18 mg/m^2 IV
[9] = 9.6 mg/m^2, 1 h IV infusion, individual patients

Molecule COc1cc2cc(c1Cl)N(C)C(=O)C[C@H](OC(=O)[C@H](C)N(C)C(=O)CCSSC(C)CCC(=O)NCCC(=O)N(C)CC(=O)N(C)CC(=O)N(C)CC(=O)N(C)CC(=O)N(C)CC(=O)N(C)CC(=O)N(C)CC(=O)N(C)CC(=O)N(C)CC(=O)N(C)CC(=O)N[C@@H](C)C(=O)N[C@H]1CSCc3cc4cc(c3)CSC[C@H](NC(=O)[C@@H](C)NC(=O)[C@H](Cc3cccc5ccccc35)NC(=O)[C@H](CCC(=O)O)NC(=O)[C@H](CC(N)=O)NC(=O)[C@@H](C)NC1=O)C(=O)N[C@@H](CCC(=O)O)C(=O)N[C@@H](CC(=O)O)C(=O)N[C@@H](Cc1ccccc1)C(=O)N[C@@H](Cc1ccc(O)cc1)C(=O)N[C@@H](CC(=O)O)C(=O)N[C@@H](C(C)(C)C)C(=O)N[C@H](C(N)=O)CSC4)[C@]1(C)O[C@H]1[C@H](C)[C@@H]1C[C@@](O)(NC(=O)O1)[C@H](OC)/C=C/C=C(\C)C2 (some centres unmarked) [BT1718] ({X1-βAla}-[Sar][Sar][Sar][Sar][Sar][Sar][Sar][Sar][Sar][Sar]AC[dA]NE[1Nal][dA]CEDFYD[Tle]C-NH2; linker 12-18-25 via TBMB (inferred)) has a clearance [1, 5] of 13.4 ± 4.7 mL/min/kg, a half-life [1, 5] of 12.6 min and a Cmax [1, 5] of 200 ± 40 nM. It also gave a Vd [1, 5] of 0.24 ± 0.05 L/kg, a clearance [1, 6] of 8.8 ± 0.8 mL/min/kg and a half-life [1, 6] of 13.8 min. It also gave a Cmax [1, 6] of 670 ± 40 nM, a Vd [1, 6] of 0.17 ± 0.02 L/kg and a clearance [1, 7] of 8.2 ± 0.6 mL/min/kg. It also gave a half-life [1, 7] of 21.6 min, a Cmax [1, 7] of 1210 ± 90 nM and a Vd [1, 7] of 0.21 ± 0.01 L/kg. It also gave a clearance [1, 8] of 6.7 mL/min/kg, a half-life [1, 8] of 22.8 min and a Cmax [1, 8] of 2530 nM. It also gave a Vd [1, 8] of 0.16 L/kg, an AUC [1, 5] of 0.08 ± 0.02 µM·h and an AUC [1, 6] of 0.28 ± 0.03 µM·h. The AUC [1, 7] was 0.59 ± 0.14 µM·h, the AUC [1, 8] was 1.09 µM·h and the “delivery of DM1 to tumor” value [2] was “delivery of DM1 to tumor in two patients”. The CLp [3, 9] was 4.4 mL/min/kg and 10.2 mL/min/kg, the Vss [3, 9] was 0.18 L/kg and the t½ [3, 9] was 17 min and 14 min. It also gave a clearance ([3]; intravenous, Data for all patients, read-out: CLp) of 10 mL/min/kg, a half-life ([3]; intravenous, Data for all patients, read-out: t½) of 18 min and a clearance ([3]; intravenous, Data for cycle 1 only, read-out: CLp) of 12 mL/min/kg. The half-life ([3]; intravenous, Data for cycle 1 only, read-out: t½) was 18 min, the clearance ([3]; intravenous, patients, read-out: Mean (±SD) plasma clearance (CLp) (converted)) was 538 mL/min and the Vd ([3]; intravenous, patients, read-out: mean (±SD) volume of distribution (Vss)) was 22.9 L. The half-life ([3]; intravenous, patients, read-out: terminal half-life (t½)) was 12 to 60 min, the clearance ([3]; iv, 1.2 mg/m^2, 1.2 mg/m^2, 1 h IV infusion, individual patient, read-out: CLp) was 12.5 mL/min/kg and the Vd ([3]; iv, 1.2 mg/m^2, 1.2 mg/m^2, 1 h IV infusion, individual patient, read-out: Vss) was 0.23 L/kg. For the same molecule, the half-life ([3]; iv, 1.2 mg/m^2, 1.2 mg/m^2, 1 h IV infusion, individual patient, read-out: t½) was 6 min, the clearance ([3]; iv, 2.4 mg/m^2, 2.4 mg/m^2, 1 h IV infusion, individual patient, read-out: CLp) was 18.4 mL/min/kg and the Vd ([3]; iv, 2.4 mg/m^2, 2.4 mg/m^2, 1 h IV infusion, individual patient, read-out: Vss) was 0.3 L/kg. For the same molecule, the half-life ([3]; iv, 2.4 mg/m^2, 2.4 mg/m^2, 1 h IV infusion, individual patient, read-out: t½) was 6 min, the clearance ([3]; iv, 4.8 mg/m^2, 4.8 mg/m^2, 1 h IV infusion, individual patient, read-out: CLp) was 13.3 mL/min/kg and the Vd ([3]; iv, 4.8 mg/m^2, 4.8 mg/m^2, 1 h IV infusion, individual patient, read-out: Vss) was 0.19 L/kg. For the same molecule, the half-life ([3]; iv, 4.8 mg/m^2, 4.8 mg/m^2, 1 h IV infusion, individual patient, read-out: t½) was 10 min, the Vd ([3]; iv, 9.6 mg/m^2, 9.6 mg/m^2, 1 h IV infusion, individual patients, read-out: Vss) was 0.15 L/kg and the half-life ([3]; iv, 9.6 mg/m^2, 9.6 mg/m^2, 1 h IV infusion, individual patients, read-out: t½) was 16 min. For the same molecule, the AUC vs dose ([3]; over the range 0.6-25 mg/m2) was “approximately dose proportional” and the half-life [4] was > 360 min.
